Positions count from the first letter of the chain named.
B1: M103205H795-MY449 / M103202L889-SK1 (antibody, human IgG1, kappa)
heavy: QVTLKESGPVLVKPTETLTLTCTVSGIDLSHDDISWVRQAPGKGLEWVGIISYAGSTYYASWAKGRLTISKDTSKNQVVLTMTNMDPVDTATYYCARGVPAYSHGGDLWGQGTLVTVSSASTKGPSVFPLAPSSKSTSGGTAALGCLVKDYFPEPVTVSWNSGALTSGVHTFPAVLQSSGLYSLSSVVTVPSSSLGTQTYICNVNHKPSNTKVDKKVEPKSCDKTHTCPPCPALELLTGPSVFLFPPKPKDTLMISRTPEVTCVVVDVSDEDPEVKFNWYVDGVEVHNAKTKPREEQYNSTYRVVSVLTVLHQDWLNGKEYKCKVSNKALPKPIEKTISKAKGQPREPQVYTLPPSREEMTKNQVSLTCLVKGFYPSDIAVEWESNGQPENNYKTTPPVLDSDGSFFLYSKLTVDKSRWQQGNVFSCSVMHEALHNHYTQKSLSLSP
light: DIVMTQSPATLSLSPGERATLSCTSSQSVYHANWLSWFQQKPGQPPKLLIYWASTLAYGVPSRFSGSGSGTDFTLTISSLQPEDAATYYCAGGYGGGRYAFGQGTKVEIKRTVAAPSVFIFPPSDEQLKSGTASVVCLLNNFYPREAKVQWKVDNALQSGNSQESVTEQDSKDSTYSLSSTLTLSKADYEKHKVYACEVTHQGLSSPVTKSFNRGEC
B2: MS_M103205H1186-SG1/M103202L889-SK1 (antibody, human IgG1, kappa, V domains shown)
VH: QVTLKESGPVLVKPTETLTLTCTVSGIDLSHDDISWVRQAPGKGLEWVGIISYAGKKYYASWAKGRLTISKDTSKNQVVLTMTNMDPVDTATYYCARGVPAYSHGGDLWGQGTLVTVSS
VL: DIVMTQSPATLSLSPGERATLSCTSSQSVYHANWLSWFQQKPGQPPKLLIYWASTLAYGVPSRFSGSGSGTDFTLTISSLQPEDAATYYCAGGYGGGRYAFGQGTKVEIKR
notes: also called MS1032LO18-SG1
B3: MS_M103245H795-SG1/M103202L1045-SK1 (antibody, human IgG1, kappa, V domains shown)
VH: B2 VH with T23K, G49S, K56S, K57T
VL: B2 VL with S25T, A32E
notes: also called MS1032LO21-SG1

Tests used:
[1] = biological target: T1, cynomolgus monkey FcγRIIa2 extracellular domain, His-tagged (cynomolgus monkey); assay: SPR (BIACORE), 25 C, antibody captured, FcgR as analyte; KD of SG1 divided by KD of variant;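 also: relative to parent M103205H795-SG1 carrying the SG1 human heavy chain constant region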
T1 construct: also called cyno FcγRIIa2; FcgRIIa2; not shown: C-terminal His-tag
T1 chain: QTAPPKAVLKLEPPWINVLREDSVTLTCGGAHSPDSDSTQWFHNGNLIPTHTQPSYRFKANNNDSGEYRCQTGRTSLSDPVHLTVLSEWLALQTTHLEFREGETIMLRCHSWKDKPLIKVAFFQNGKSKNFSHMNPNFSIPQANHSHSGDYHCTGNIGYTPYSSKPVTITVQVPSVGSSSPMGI
Experimental: (§1) The kinetic analysis of interactions between these antibodies and FcγR was carried out using BIACORE® T200 or BIACORE® 4000 (GE Healthcare). HBS-EP+ (GE Healthcare) was used as the running buffer, and the measurement temperature was set to 25° C. A chip produced by immobilizing Protein A. Protein A/G or mouse anti-human IgG kappa light chain (BD Biosciences) onto a Series S Sensor Chip CM4 or CM5 (GE Healthcare) by the amine-coupling method was used. […] After the measurement, the antibody captured on the chip was washed off by allowing reaction with 10 mM glycine-HCl, pH1.5 and 25 mM NaOH so that the chip was regenerated and used repeatedly. The sensorgrams obtained as measurement results were analyzed by the 1:1 Langmuir binding model using the BIACORE® Evaluation Software to calculate the binding rate constant ka (L/mol/s) and dissociation rate constant kd (l/s), and the dissociation constant KD (mol/L) was calculated from these values. […] Regarding such interactions, KD values were calculated using the following 1:1 binding model described in BIACORE® T100 Software Handbook BR1006-48 Edition AE.

[2] = biological target: T2, human FcγRIIaH extracellular domain, His-tagged (human, UniProt P12318 34-217); assay: as above
T2 construct: also called human FcγRIIa (type H); FcgRIIaH; not shown: C-terminal His-tag
T2 sequence: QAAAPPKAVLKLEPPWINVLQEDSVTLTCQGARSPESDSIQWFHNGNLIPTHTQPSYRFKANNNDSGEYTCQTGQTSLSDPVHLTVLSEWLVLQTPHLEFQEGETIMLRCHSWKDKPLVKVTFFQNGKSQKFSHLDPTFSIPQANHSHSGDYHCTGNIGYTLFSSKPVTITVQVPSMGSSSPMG
Experimental: as §1

[3] = biological target: T3, cynomolgus monkey FcγRIIa1 extracellular domain, His-tagged (cynomolgus monkey); assay: as above
T3 construct: also called cyno FcγRIIa1; FcgRIIa1; not shown: C-terminal His-tag
T3 chain: T1 chain with T95P, A121T, K127I, S128A, N130K, N135D, Q142R
Experimental: as §1

[4] = biological target: T4, cynomolgus monkey FcγRIIa3 extracellular domain, His-tagged (cynomolgus monkey); assay: as above
T4 construct: also called cyno FcγRIIa3; FcgRIIa3; not shown: C-terminal His-tag
T4 chain: T1 chain with K127I, N130K, H133P, Q142R
Experimental: as §1

[5] = biological target: T5, cynomolgus monkey FcγRIIb extracellular domain, His-tagged (cynomolgus monkey); assay: as above
T5 construct: also called cyno FcγRIIb; cynoFcγRIIb; not shown: C-terminal His-tag
T5 chain: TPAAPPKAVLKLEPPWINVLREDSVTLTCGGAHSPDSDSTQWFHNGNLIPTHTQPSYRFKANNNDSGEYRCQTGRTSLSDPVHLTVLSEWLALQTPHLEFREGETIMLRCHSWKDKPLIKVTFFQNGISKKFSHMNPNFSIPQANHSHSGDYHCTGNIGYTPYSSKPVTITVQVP
Experimental: as §1

[6] = biological target: T6, human FcγRIIb extracellular domain, His-tagged (human, UniProt P31994 43-217); assay: as above
T6 construct: also called FcgRIIb (human); not shown: C-terminal His-tag
T6 sequence: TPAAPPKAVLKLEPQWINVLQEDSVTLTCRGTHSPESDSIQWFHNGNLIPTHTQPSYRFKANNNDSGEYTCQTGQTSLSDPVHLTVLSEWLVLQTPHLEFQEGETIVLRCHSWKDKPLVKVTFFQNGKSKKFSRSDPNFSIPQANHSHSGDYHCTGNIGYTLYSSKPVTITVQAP
Experimental: as §1

[7] = biological target: T7, human FcγRIIIaV extracellular domain, His-tagged (human, UniProt P08637 17-208); assay: as above
T7 construct: also called human FcγRIIIa (V158); FcgRIIIaV; not shown: C-terminal His-tag
Experimental: as §1

[8] = biological target: T8, human FcγRIIaR extracellular domain, His-tagged (human, UniProt P12318 34-217); assay: as above
T8 construct: also called human FcγRIIa (type R); FcgRIIaR; not shown: C-terminal His-tag
T8 chain: T2 sequence with H134R
Experimental: as §1

[9] = biological target: T9, cynomolgus monkey FcγRIIIaS extracellular domain, His-tagged (cynomolgus monkey, UniProt Q8SPW2 21-206 at identity 1.00)); assay: as above
T9 construct: also called cyno FcγRIIIaS; FcgRIIIaS; not shown: C-terminal His-tag
T9 chain: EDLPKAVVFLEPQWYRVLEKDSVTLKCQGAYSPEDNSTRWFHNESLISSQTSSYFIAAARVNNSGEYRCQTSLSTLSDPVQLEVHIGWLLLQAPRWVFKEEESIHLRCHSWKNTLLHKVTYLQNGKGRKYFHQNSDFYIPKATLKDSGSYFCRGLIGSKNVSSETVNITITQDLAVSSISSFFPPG
Experimental: as §1

[10] = biological target: T10, Mouse latent myostatin (mouse, UniProt O08689 26-267; O08689 268-376); assay: SPR (BIACORE T200) 37C, pH 7.4, antibody captured by ProA/G
T10 construct: Latent form = complex of two propeptides and the mature dimer
T10 sequence 1: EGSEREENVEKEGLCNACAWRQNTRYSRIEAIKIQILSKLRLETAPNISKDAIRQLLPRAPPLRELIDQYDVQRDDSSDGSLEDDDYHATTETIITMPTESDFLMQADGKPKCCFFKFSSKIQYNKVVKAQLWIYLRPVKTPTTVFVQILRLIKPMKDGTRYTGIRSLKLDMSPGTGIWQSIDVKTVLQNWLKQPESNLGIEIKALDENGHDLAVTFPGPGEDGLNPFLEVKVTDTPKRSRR
T10 sequence 2: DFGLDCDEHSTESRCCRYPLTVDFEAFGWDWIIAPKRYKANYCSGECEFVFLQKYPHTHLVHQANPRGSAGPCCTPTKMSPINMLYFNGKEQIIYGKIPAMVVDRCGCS
Experimental: (§2) ProA/G (Pierce) was immobilized onto all flow cells of a CM4 chip using an amine coupling kit (GE Healthcare). All antibodies and analytes were prepared in ACES pH7.4 or pH5.8 buffer containing 20 mM ACES, 150 mM NaCl, 1.2 mM CaCl₂, 0.05% TWEEN®) 20, 0.005% NaN₃. […] Human, cyno, and mouse latent myostatin was injected at 3.125 to 50 nM prepared by two-fold serial dilution, followed by dissociation. The sensor surface was regenerated each cycle with 10 mM Glycine HCl pH1.5. Binding affinity was determined by processing and fitting the data to a 1:1 binding model using BIACORE® T200 Evaluation software, version 2.0 (GE Healthcare).

[11] = biological target: T11, Human latent myostatin (human, UniProt O14793 25-266; O14793 267-375); assay: as above
T11 construct: also called human myostatin latent form
T11 sequence 1: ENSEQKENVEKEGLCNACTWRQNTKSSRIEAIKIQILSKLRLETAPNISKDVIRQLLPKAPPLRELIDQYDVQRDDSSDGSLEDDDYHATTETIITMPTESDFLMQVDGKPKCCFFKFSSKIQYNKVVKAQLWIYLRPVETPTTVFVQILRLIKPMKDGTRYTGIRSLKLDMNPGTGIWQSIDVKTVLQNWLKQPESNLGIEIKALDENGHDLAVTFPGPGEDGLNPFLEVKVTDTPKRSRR
T11 sequence 2: T10 sequence 2
Experimental: as §2

[12] = biological target: T12, Cynomolgus monkey latent myostatin (cynomolgus monkey, UniProt Q95J86 25-266; Q95J86 267-375); assay: as above
T12 construct: Latent form = complex of two propeptides and the mature dimer; also called Cyno latent myostatin
T12 sequence 1: T11 sequence 1 with V52A
T12 sequence 2: T10 sequence 2
Experimental: as §2

[13] = biological target: T12, Cynomolgus monkey latent myostatin; assay: SPR (BIACORE T200) 37C, pH 5.8, antibody captured by ProA/G
Experimental: as §2

[14] = biological target: T12, Cynomolgus monkey latent myostatin; assay: SPR 37C; KD pH 5.8 / KD pH 7.4
Experimental: as §2

[15] = biological target: T11, Human latent myostatin; assay: SPR (BIACORE T200) 37C, pH 5.8, antibody captured by ProA/G
Experimental: as §2

[16] = biological target: T11, Human latent myostatin; assay: SPR 37C; KD pH 5.8 / KD pH 7.4
Experimental: as §2

T7 sequence (P08637 17-208 F176V): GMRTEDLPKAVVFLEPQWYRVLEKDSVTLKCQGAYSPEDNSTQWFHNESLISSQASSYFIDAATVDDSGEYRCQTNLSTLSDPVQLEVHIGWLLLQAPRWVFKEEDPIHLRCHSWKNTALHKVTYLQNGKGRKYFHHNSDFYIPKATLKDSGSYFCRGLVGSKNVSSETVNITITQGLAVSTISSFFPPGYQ

Binder | KD fold (SG1 = 1) [1] | KD fold (SG1 = 1) [2] | KD fold (SG1 = 1) [3] | KD fold (SG1 = 1) [4] | KD fold (SG1 = 1) [5] | KD fold (SG1 = 1) [6] | KD fold (SG1 = 1) [7] | KD fold (SG1 = 1) [8] | KD fold (SG1 = 1) [9] | Kd [10] | Kd [11] | Kd [12] | Kd [13] | ratio of KD at pH 5.8/pH 7.4 [14] | Kd [15] | ratio of KD at pH 5.8/pH 7.4 [16]
B1 | 5.4 fold | 7 fold | 3.7 fold | 11.3 fold | 7.8 fold | 15.9 fold | 0.3 fold | 14.9 fold | 0.4 fold | – | – | – | – | – | – | –
B2 | – | – | – | – | – | – | – | – | – | 0.272 nM | 0.329 nM | 0.354 nM | 80.9 nM | 229 | – | –
B3 | – | – | – | – | – | – | – | – | – | – | 0.257 nM | 0.309 nM | 31 nM | 100 | 52.3 nM | 204
